Tests used:
[1] = target: DNAX Leukocyte Associated Immunoglobulin-like Receptor (DLAIR-1) (human) (UniProt Q6GTX8); assay: flow cytometry (FACScan) on CEM T cell tumor cells, PE goat-anti-mouse-IgG second step
[2] = target: DNAX Leukocyte Associated Immunoglobulin-like Receptor (DLAIR-1) (human) (UniProt Q6GTX8); assay: flow cytometry (FACScan) on Peer T cell tumor cells, PE goat-anti-mouse-IgG second step
[3] = target: DNAX Leukocyte Associated Immunoglobulin-like Receptor (DLAIR-1) (human) (UniProt Q6GTX8); assay: flow cytometry (FACScan) on HL60 promyeloid tumor cells, PE goat-anti-mouse-IgG second step
[4] = target: DNAX Leukocyte Associated Immunoglobulin-like Receptor (DLAIR-1) (human) (UniProt Q6GTX8); assay: flow cytometry (FACScan) on Molt4 T cell tumor cells, PE goat-anti-mouse-IgG second step
[5] = target: DNAX Leukocyte Associated Immunoglobulin-like Receptor (DLAIR-1) (human) (UniProt Q6GTX8); assay: flow cytometry (FACScan) on Jurkat T cell tumor cells, PE goat-anti-mouse-IgG second step
[6] = target: DNAX Leukocyte Associated Immunoglobulin-like Receptor (DLAIR-1) (human) (UniProt Q6GTX8); assay: flow cytometry (FACScan) on U937 myeloid tumor cells, PE goat-anti-mouse-IgG second step
[7] = target: DNAX Leukocyte Associated Immunoglobulin-like Receptor (DLAIR-1) (human) (UniProt Q6GTX8); assay: flow cytometry (FACScan) on HUT78 T cell tumor cells, PE goat-anti-mouse-IgG second step

| Substance | mean fluorescence intensity [1] | mean fluorescence intensity [2] | mean fluorescence intensity [3] | mean fluorescence intensity [4] | mean fluorescence intensity [5] | mean fluorescence intensity [6] | mean fluorescence intensity [7] |
| --- | --- | --- | --- | --- | --- | --- | --- |
| DX26 monoclonal antibody | 92.7 | 29.1 | 46.9 | 30.7 | 47.1 | 49.5 | 25.8 |
| control IgG1 (antibody) | < 5 | < 5 | < 5 | < 5 | < 5 | < 5 | – |
